Measurements: patent US20110263454A1, “Methods of Identifying Functional Characteristics of Promoters, Transcription Modifying Proteins and Transcription Modulating Agents” (Salk Institute for Biological Studies, priority 2008, published 2011)

Experiments:
hPPARg2 promoter = assay: NHR-promoter luciferase screen, hPPARg2 promoter; type: cell-based, human; settings: for Luc. act., normalized to lacZ / Normalized Luc. act., normalized to control: PPARG2 promoter, hormone receptor with or without its ligand; for Normalized Luc. act., normalized to control: relative to control; for Results of assays of transcription factor (+/- ligand) with hPPARg2: Table 6d, luciferase activity relative to control (control = 1.00)
Method in brief: (§1)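 CV-1 cells were co-transfected with 50 ng NHR (homodimer or NHR/RXR heterodimer), 100 ng promoter-luciferase construct and 50 ng LacZ. Luciferase was normalized to LacZ and to a no-NHR/no-ligand control.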

mUCP1 promoter = assay: NHR-promoter luciferase screen, mUCP1 promoter; type: cell-based, mouse; settings: for Luc. act., normalized to lacZ / Normalized Luc. act., normalized to control: mUCP1 promoter reporter, co-transfected HR, with or without its ligand; for Normalized Luc. act., normalized to control: relative to control; for luciferase activity normalized to lacZ activity and to a control, mUCP!: mUCP! promoter-luciferase, CV-1 cells, NHR +/- ligand, control = 1.00
Method in brief: as §1

mGhrelin promoter = assay: NHR-promoter luciferase screen, mGhrelin promoter; type: cell-based, mouse; settings: for Luc. act., normalized to lacZ / Normalized Luc. act., normalized to control: Table 8, mGhrelin; for Results of assays of transcription factor (+/- ligand) with mGhrelin: Table 6d, luciferase activity relative to control (control = 1.00)
Method in brief: as §1

MCP-1 promoter = assay: NHR-promoter luciferase screen, MCP-1 promoter; type: cell-based; settings: for Normalized Luc. act., normalized to control / Luc. act., normalized to lacZ: MCP-1 promoter reporter; for Normalized Luc. act., normalized to control: HR without or with its ligand, relative to control; for Luc. act., normalized to lacZ: hormone receptor (HR) without or with its ligand; for mMCP-1 promoter reporter activity: transcription factor +/- ligand, control = 1.00
Method in brief: as §1

hIFNg promoter = assay: NHR-promoter luciferase screen, hIFNg promoter; type: cell-based, human; settings: for Luc. act., normalized to lacZ / Normalized Luc. act., normalized to control: IFNg promoter, HR component without or with ligand; for hIFNg promoter reporter activity: transcription factor +/- ligand, control = 1.00
Method in brief: as §1

hG6PD promoter = assay: NHR-promoter luciferase screen, hG6PD promoter; type: cell-based, human; settings: for Luc. act., normalized to lacZ / Normalized Luc. act., normalized to control: G6PD promoter reporter, co-transfected HR, without or with its ligand; for Normalized Luc. act., normalized to control: relative to control; for luciferase activity normalized to lacZ activity and to a control, hG6PD: hG6PD promoter-luciferase, CV-1 cells, NHR +/- ligand, control = 1.00
Method in brief: as §1

Molecule | Luc. act., normalized to lacZ (hPPARg2 promoter) | Normalized Luc. act., normalized to control (hPPARg2 promoter) | Results of assays of transcription factor (+/- ligand) with hPPARg2 (hPPARg2 promoter) | Luc. act., normalized to lacZ (mUCP1 promoter) | Normalized Luc. act., normalized to control (mUCP1 promoter) | luciferase activity normalized to lacZ activity and to a control, mUCP! (mUCP1 promoter) | Luc. act., normalized to lacZ (mGhrelin promoter) | Normalized Luc. act., normalized to control (mGhrelin promoter) | Results of assays of transcription factor (+/- ligand) with mGhrelin (mGhrelin promoter) | luciferase/LacZ, mGhrelin (selected results) (mGhrelin promoter; mGhrelin promoter-luciferase, NHR +/- ligand, control = 1.0) | Normalized Luc. act., normalized to control (MCP-1 promoter) | Luc. act., normalized to lacZ (MCP-1 promoter) | mMCP-1 promoter reporter activity (MCP-1 promoter) | Luc. act., normalized to lacZ (hIFNg promoter) | Normalized Luc. act., normalized to control (hIFNg promoter) | hIFNg promoter reporter activity (hIFNg promoter) | Luc. act., normalized to lacZ (hG6PD promoter) | Normalized Luc. act., normalized to control (hG6PD promoter) | luciferase activity normalized to lacZ activity and to a control, hG6PD (hG6PD promoter)
ERR2: Estrogen Related Receptor β (NR3B2, ERRb), cDNA driver (protein, UniProt O95718 1-433, looked up) Steroid hormone receptor ERR2: MSSDDRHLGSSCGSFIKTEPSSPSSGIDALSHHSPSGSSDASGGFGLALGTHANGLDSPPMFAGAGLGGTPCRKSYEDCASGIMEDSAIKCEYMLNAIPKRLCLVCGDIASGYHYGVASCEACKAFFKRTIQGNIEYSCPATNECEITKRRRKSCQACRFMKCLKVGMLKEGVRLDRVRGGRQKYKRRLDSESSPYLSLQISPPAKKPLTKIVSYLLVAEPDKLYAMPPPGMPEGDIKALTTLCDLADRELVVIIGWAKHIPGFSSLSLGDQMSLLQSAWMEILILGIVYRSLPYDDKLVYAEDYIMDEEHSRLAGLLELYRAILQLVRRYKKLKVEKEEFVTLKALALANSDSMYIEDLEAVQKLQDLLHEALQDYELSQRHEEPWRTGKLLLTLPLLRQTAAKAVQHFYSVKLQGKVPMHKLFLEMLEAKV | 3.2 | 1.6 | 1.59 | 13.1 | 3.0 | 2.95 | 365.8 | 7.0 | 7.00 | 7.0 | 8.8 | 946.7 | 8.84 | 58.9 | 3.7 | 3.70 | 59.1 | 1.6 | 1.58
CTF1: COUP-TF1 (NR2F1), cDNA driver (protein, UniProt P10589 1-423, looked up) COUP transcription factor 1: MAMVVSSWRDPQDDVAGGNPGGPNPAAQAARGGGGGAGEQQQQAGSGAPHTPQTPGQPGAPATPGTAGDKGQGPPGSGQSQQHIECVVCGDKSSGKHYGQFTCEGCKSFFKRSVRRNLTYTCRANRNCPIDQHHRNQCQYCRLKKCLKVGMRREAVQRGRMPPTQPNPGQYALTNGDPLNGHCYLSGYISLLLRAEPYPTSRYGSQCMQPNNIMGIENICELAARLLFSAVEWARNIPFFPDLQITDQVSLLRLTWSELFVLNAAQCSMPLHVAPLLAAAGLHASPMSADRVVAFMDHIRIFQEQVEKLKALHVDSAEYSCLKAIVLFTSDACGLSDAAHIESLQEKSQCALEEYVRSQYPNQPSRFGKLLLRLPSLRTVSSSVIEQLFFVRLVGKTPIETLIRDMLLSGSSFNWPYMSIQCS | 1.4 | 0.7 | 0.71 | 1.8 | 0.4 | 0.41 | 113.8 | 2.2 | 2.18 | – | 0.0 | – | 0.00 | 31.8 | 2.0 | 2.00 | 39.7 | 1.1 | 1.06
CTF2: COUP-TF2 (NR2F2), cDNA driver (protein, UniProt P24468 1-414, looked up) COUP transcription factor 2: MAMVVSTWRDPQDEVPGSQGSQASQAPPVPGPPPGAPHTPQTPGQGGPASTPAQTAAGGQGGPGGPGSDKQQQQQHIECVVCGDKSSGKHYGQFTCEGCKSFFKRSVRRNLSYTCRANRNCPIDQHHRNQCQYCRLKKCLKVGMRREAVQRGRMPPTQPTHGQFALTNGDPLNCHSYLSGYISLLLRAEPYPTSRFGSQCMQPNNIMGIENICELAARMLFSAVEWARNIPFFPDLQITDQVALLRLTWSELFVLNAAQCSMPLHVAPLLAAAGLHASPMSADRVVAFMDHIRIFQEQVEKLKALHVDSAEYSCLKAIVLFTSDACGLSDVAHVESLQEKSQCALEEYVRSQYPNQPTRFGKLLLRLPSLRTVSSSVIEQLFFVRLVGKTPIETLIRDMLLSGSSFNWPYMAIQ | 1.5 | 0.8 | 0.76 | 1.9 | 0.4 | 0.43 | 173.3 | 3.3 | 3.32 | – | 0.0 | – | 0.00 | 35.0 | 2.2 | 2.20 | 43.9 | 1.2 | 1.17
ERR3: Estrogen Related Receptor γ (NR3B3, ERRg), cDNA driver (protein, UniProt P62508 1-458, looked up) Estrogen-related receptor …: MDSVELCLPESFSLHYEEELLCRMSNKDRHIDSSCSSFIKTEPSSPASLTDSVNHHSPGGSSDASGSYSSTMNGHQNGLDSPPLYPSAPILGGSGPVRKLYDDCSSTIVEDPQTKCEYMLNSMPKRLCLVCGDIASGYHYGVASCEACKAFFKRTIQGNIEYSCPATNECEITKRRRKSCQACRFMKCLKVGMLKEGVRLDRVRGGRQKYKRRIDAENSPYLNPQLVQPAKKPYNKIVSHLLVAEPEKIYAMPDPTVPDSDIKALTTLCDLADRELVVIIGWAKHIPGFSTLSLADQMSLLQSAWMEILILGVVYRSLSFEDELVYADDYIMDEDQSKLAGLLDLNNAILQLVKKYKSMKLEKEEFVTLKAIALANSDSMHIEDVEAVQKLQDVLHEALQDYEAGQHMEDPRRAGKMLMTLPLLRQTSTKAVQHFYNIKLEGKVPMHKLFLEMLEAKV | 2.1 | 1.0 | 1.04 | 26.5 | 6.0 | 5.98 | 145.9 | 2.8 | 2.79 | – | 4.6 | 487.3 | 4.55 | 27.9 | 1.8 | 1.75 | 63.7 | 1.7 | 1.70
